This is an account of results in PMC12362812.

For this assay, the target named is NUP93 (nucleoporin 93) (UniProt Q8N1F7). In words: co-immunoprecipitation, Western blot. Conditions: reference: wild-type β-catenin; sites S191.

As for “β‐catenin (from UniProt P35222) β-catenin S191 mutant (S191A)”, the “binding against the reference” value was “weaker”.
